Legend:
[1] = tested on: Saccharomyces cerevisiae; assay: protein stability index of tFT-peptide fusion in wild type (PSI (0-1 scale)); higher = more stable (slower turnover); details: genetic background: wild type
Procedure: (§1)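 MPS profiling in S. cerevisiae of two library types built from selected 12-aa C-degron peptides (IN1, IN2, LN1, LN3, VN2, R1-R5, W1-W3, Atg1 and Rpa12 C-termini): saturation mutagenesis libraries and C-terminal +1 capping libraries (13 aa). Each peptide is fused to the C-terminus of a sfGFP-mCherry timer, after a GGGS linker. Cells are FACS-sorted into 8 mCherry/sfGFP bins and sequenced. PSI runs from 0 (unstable) to 1 (stable), measured once in wild type and in the das1Δ or doa10Δ background.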

[2] = tested on: Saccharomyces cerevisiae; assay: protein stability index of tFT-peptide fusion in deletion strain of DOA10 (PSI (0-1 scale)); higher = more stable (slower turnover)
Procedure: as §1

[3] = tested on: Saccharomyces cerevisiae; assay: protein stability index of tFT-peptide fusion in deletion strain of DAS1 (PSI (0-1 scale)); higher = more stable (slower turnover)
Procedure: as §1
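For protein stability index of tFT-peptide fusion in deletion strain of DAS1 in this document: PSI is a weighted mean of each variant's read distribution over the sorted stability bins, computed only for variants having over 10 reads in total.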
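For protein stability index of tFT-peptide fusion in deletion strain of DOA10 in this document: PSI per variant is the weighted mean of its sequencing read distribution over the sorted stability bins, counting only variants with over 10 reads summed across bins.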
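For protein stability index of tFT-peptide fusion in wild type in this document: PSI derived as read-weighted mean over the 8 sorting bins, only variants exceeding 10 total reads kept, mCherry placed adjacent to the peptide and sfGFP distal.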

Sequence	protein stability index [1]	protein stability index [2]	protein stability index [3]
CLVSLPILLCFR	0.0846	0.564	–
RVTRLDDIYFRI	0.689	0.731	–
DSLRVLLPLYFR	0.33	0.676	–
CAVSLPILLFFR	0.0547	0.627	–
GLYMCSKGCWFR	0.489	0.673	–
FSMRWTFRYWVV	0.0991	–	0.526
ARWRVGLWRGAV	0.395	–	0.688
VRGAVGGWCLVG	0.441	–	0.674
LKILRQRMNHQN	0.251	–	0.662
CTSCGYKFRTNNM	0.679	–	0.69
RLIQPLFVQFLN	0.0762	–	0.621
LKILRQKMNHQNS	0.521	–	0.671
LVVYLSCVAMIN	0.0127	–	0.032
CTSCQYKFRTNN	0.334	–	0.689
FIMRWTFRYWVN	0.0251	–	0.251
CTSCGTKFRTNN	0.552	–	0.693
KKQKKGQKQKIN	0.177	–	0.566
LKILRQDMNHQN	0.647	–	0.643
KKHKKGQKQKINF	0.652	–	0.669
PSLQASFWRVVG	0.111	–	0.633
RLIQPLPVQFLNL	0.636	–	0.656
KHHKKGQKQKIN	0.101	–	0.581
PSLAASFDRVVG	0.644	–	0.684

Sequence	protein stability index [1]	protein stability index [2]	protein stability index [3]
LVVYLSPVACIN	0.18	–	0.278
VRGAVCGWRLVG	0.125	–	0.673
RGIQPLPVQFLN	0.112	–	0.581
KAHKKGQKQKIN	0.111	–	0.858
VRGGVGGWRLVG	0.206	–	0.683
PDKRNHLIKLLNA	0.13	–	0.665
IRGAVGGWRLVG	0.154	–	0.681
FSMRWTFRYWVH	0.094	–	0.439
LKILRQKMNEQN	0.253	–	0.663
PSLYASFWRVVG	0.0956	–	0.674
VRGSVGGWRLVG	0.14	–	0.681
RLIQPMPVQFLN	0.0562	–	0.607
VRGAVGGWRLVGD	0.646	–	0.694
KKHKKGQKQKINT	0.62	–	0.662
PDKRNHLIKLLNT	0.144	–	0.663
KKHKKGQVQKIN	0.152	–	0.649
PSLAASFWRVVGV	0.674	–	0.685
LKILRQKMNHAN	0.196	–	0.657
ARVRVGLWRGAS	0.599	–	0.694
VRGAVGGWRLVGF	0.666	–	0.693
PSLAAMFWRVVG	0.137	–	0.691
CTSCGYKFRTVN	0.15	–	0.705
RLIQPIPVQFLN	0.0323	–	0.597

Sequence	protein stability index [1]	protein stability index [2]	protein stability index [3]
ARWRGGLWRGAS	0.543	–	0.677
LVVYLSCVACINQ	0.187	–	0.207
VRGAVGSWRLVG	0.157	–	0.68
PDKRNHLIFLLN	0.116	–	0.687
FSMRWWFRYWVN	0.0988	–	0.533
AKILRQKMNHQN	0.185	–	0.688
FSMRWTFRYWVI	0.147	–	0.461
PKILRQKMNHQN	0.194	–	0.678
ARWRPGLWRGAS	0.668	–	0.679
KKHKKGQKQKINC	0.333	–	0.658
RLDQPLPVQFLN	0.0831	–	0.808
KKHKKGQKQKIG	0.226	–	0.591
RLIQPLPVQFQN	0.366	–	0.548
VCGAVGGWRLVG	0.118	–	0.686
PDKRNHLIKLMN	0.119	–	0.605
RLIQPLPVQFLNS	0.385	–	0.658
FSMRWFFRYWVN	0.0657	–	0.602
KKHKFGQKQKIN	0.0916	–	0.578
KDKRNHLIKLLN	0.0684	–	0.723
VRGASGGWRLVG	0.172	–	0.674
VAGAVGGWRLVG	0.142	–	0.681
LKIPRQKMNHQN	0.484	–	0.679
LKILRQKGNHQN	0.655	–	0.676

Sequence	protein stability index [1]	protein stability index [2]	protein stability index [3]
VRHAVGGWRLVG	0.116	–	0.671
PDKRNHLIKDLN	0.628	–	0.557
VRGYVGGWRLVG	0.174	–	0.69
CTSHGYKFRTNN	0.242	–	0.689
LVVYLSCVACIF	0.0136	–	0.029
KKHKKGQEQKIN	0.109	–	0.543
CTSCGYKPRTNN	0.693	–	0.683
LKILRQKRNHQN	0.299	–	0.669
PDKRNHLSKLLN	0.136	–	0.659
PSLAARFWRVVG	0.14	–	0.679
LKILRQKMNHQV	0.189	–	0.671
PDKRNHLIKMLN	0.0821	–	0.598
CTSCGYKFRNNN	0.681	–	0.703
KVVYLSCVACIN	0.0215	–	0.0792
VRGAVGGWRQVG	0.189	–	0.677
VRGAVGGWRLVGA	0.524	–	0.692
LVVYLSCVTCIN	0.0223	–	0.0605
ARWRVGLWRGASK	0.672	–	0.622
LKILRQKMNTQN	0.212	–	0.675
FSMRWTFRYWVNW	0.436	–	0.534
RLIQPLWVQFLN	0.0634	–	0.569
FSMTWTFRYWVN	0.0417	–	0.568
RLIQPLPVQFKN	0.618	–	0.648

Sequence	protein stability index [1]	protein stability index [2]	protein stability index [3]
LVVYLICVACIN	0.0186	–	0.0584
ARWRVNLWRGAS	0.34	–	0.708
FSMRWTFKYWVN	0.0423	–	0.485
PEKRNHLIKLLN	0.101	–	0.608
LKILRQKHNHQN	0.322	–	0.67
PDKRNHLDKLLN	0.574	–	0.578
CTSCGYKFRTFN	0.335	–	0.712
LKWLRQKMNHQN	0.146	–	0.697
LKILRQKMNHIN	0.183	–	0.671
CTSCGYKGRTNN	0.658	–	0.674
KEHKKGQKQKIN	0.127	–	0.634
VRGAVGGWPLVG	0.596	–	0.692
FSMHWTFRYWVN	0.0392	–	0.664
PSLAASFWRVVQ	0.252	–	0.711
KKHKKGQKQKIE	0.567	–	0.585
PDERNHLIKLLN	0.179	–	0.566
LVVDLSCVACIN	0.137	–	0.367
CTSCGYRFRTNN	0.464	–	0.679
LVVYLSCVACIW	0.0175	–	0.0367
ARMRVGLWRGAS	0.645	–	0.702
CTSCGYKNRTNN	0.705	–	0.696
ARWRSGLWRGAS	0.665	–	0.676
CTSCGYKFRANN	0.538	–	0.698
